Reference: publication PMC11774494

Target: 17b (CD4-induced human monoclonal antibody)
Assay: flow cytometry of transfected 293T cells: staining with 10 μg/ml 17b with or without sCD4-183, detection with APC anti-human IgG F(ab')2, arithmetic mean APC fluorescence of live (propidium iodide negative) single cells; 'All titrations …
Conditions: sCD4-183 at 0, 0.078125, 0.3125, 1.25, 5, 20, 80 μM (row value in value_extra.sCD4_183_uM), 20 min staining at room temperature, CAUTION: 17b staining of cell-surface trimers with sCD4, mostly reports trimer opening, normalized per Env, one titration each. Higher = more 17b staining of cell-surface Env. 17b's epitope is exposed, numbering: unknown, sequence starts at 1
[1] = AUC over sCD4-183 0-80 μM, parent: 0.907, scale: area under the normalized MFI curve, log10 x-axis
[2] = sCD4-183 0 μM, parent: 0.0187, scale: normalized MFI
[3] = sCD4-183 0.078125 μM, parent: 0.0465, scale: normalized MFI
[4] = sCD4-183 0.3125 μM, parent: 0.0578, scale: normalized MFI
[5] = sCD4-183 1.25 μM, parent: 0.0973, scale: normalized MFI
[6] = sCD4-183 5 μM, parent: 0.198, scale: normalized MFI
[7] = sCD4-183 20 μM, parent: 0.585, scale: normalized MFI
[8] = sCD4-183 80 μM, parent: 1, scale: normalized MFI

Substance	screen value [1]	screen value [2]	screen value [3]	screen value [4]	screen value [5]	screen value [6]	screen value [7]	screen value [8]
HIV-1 JR-CSF envelope glycoprotein gp160 (Env), P20871 JR-CSF_W112A	1.64	0.00342	0.153	0.255	0.378	0.566	0.852	1
HIV-1 JR-CSF envelope glycoprotein gp160 (Env), P20871 JR-CSF_Y173A	1.72	0.137	0.199	0.265	0.357	0.533	0.862	1
HIV-1 JR-CSF envelope glycoprotein gp160 (Env), P20871 JR-CSF_Y177A	2.87	0.317	0.576	0.719	0.858	0.82	0.942	1
HIV-1 JR-CSF envelope glycoprotein gp160 (Env), P20871 JR-CSF_Y318A	2.53	0.234	0.39	0.538	0.703	0.901	0.923	1
HIV-1 JR-CSF envelope glycoprotein gp160 (Env), P20871 JR-CSF_Y384A		0.03	0.141	0.264	0.357	0.491	0.712	1
